Target: type I collagen
Experiment: cell-based or functional assay

Substance: elastin
- unbound DNA in DNA binding assay (1:1 elastin to collagen): 0.077 µM
- unbound DNA in DNA binding assay (1:2 elastin to collagen): 0.116 µM
